# Assay results as given in patent publication US20200054719.
# Tested on: thrombin-activatable fibrinolysis inhibitor (TAFI), purified
substance,measurement,value
"E-WE thrombin (E. coli derived, non-glycosylated W215A/E217A thrombin)","activated TAFI, measured as hippuric acid generated from hippuryl-arginine (absorbance at 382 nm)",E-WE thrombin is a poor activator of TAFI
